Kd data for 1 substance are collected here from paper PMC6068105.

The target of assay [1] is Human plasma fibronectin (human). Nature of the assay: SPR; Biacore T100, 25 °C; fibronectin (10 μg/ml) directly immobilized on CM5 chip; CSGal-1 injected at 30 μl/min; 10 mM HEPES pH 7.4, 150 mM NaCl, 3 mM EDTA, 0.0005% TWEEN-20; steady-state model.
Assay [2] addresses recombinant mouse α5β1 integrin protein (mouse) (UniProt P11688). The experiment in a line: SPR; Biacore T100, 25 °C; α5β1 integrin (1 μg/ml) captured by anti-α5 integrin antibody on CM5 chip; CSGal-1 injected at 30 μl/min; 10 mM HEPES pH 7.4, 150 mM NaCl, 3 mM EDTA, 0.0005% TWEEN-20; steady-state model. For orientation: In SPR one partner is held on a chip, and binding of the other changes the refractive index at the surface.

pKd: −log10 of the molar value.

Chain of Human plasma fibronectin (human) (P02751 other isoform, or with tags, fused parts or gaps): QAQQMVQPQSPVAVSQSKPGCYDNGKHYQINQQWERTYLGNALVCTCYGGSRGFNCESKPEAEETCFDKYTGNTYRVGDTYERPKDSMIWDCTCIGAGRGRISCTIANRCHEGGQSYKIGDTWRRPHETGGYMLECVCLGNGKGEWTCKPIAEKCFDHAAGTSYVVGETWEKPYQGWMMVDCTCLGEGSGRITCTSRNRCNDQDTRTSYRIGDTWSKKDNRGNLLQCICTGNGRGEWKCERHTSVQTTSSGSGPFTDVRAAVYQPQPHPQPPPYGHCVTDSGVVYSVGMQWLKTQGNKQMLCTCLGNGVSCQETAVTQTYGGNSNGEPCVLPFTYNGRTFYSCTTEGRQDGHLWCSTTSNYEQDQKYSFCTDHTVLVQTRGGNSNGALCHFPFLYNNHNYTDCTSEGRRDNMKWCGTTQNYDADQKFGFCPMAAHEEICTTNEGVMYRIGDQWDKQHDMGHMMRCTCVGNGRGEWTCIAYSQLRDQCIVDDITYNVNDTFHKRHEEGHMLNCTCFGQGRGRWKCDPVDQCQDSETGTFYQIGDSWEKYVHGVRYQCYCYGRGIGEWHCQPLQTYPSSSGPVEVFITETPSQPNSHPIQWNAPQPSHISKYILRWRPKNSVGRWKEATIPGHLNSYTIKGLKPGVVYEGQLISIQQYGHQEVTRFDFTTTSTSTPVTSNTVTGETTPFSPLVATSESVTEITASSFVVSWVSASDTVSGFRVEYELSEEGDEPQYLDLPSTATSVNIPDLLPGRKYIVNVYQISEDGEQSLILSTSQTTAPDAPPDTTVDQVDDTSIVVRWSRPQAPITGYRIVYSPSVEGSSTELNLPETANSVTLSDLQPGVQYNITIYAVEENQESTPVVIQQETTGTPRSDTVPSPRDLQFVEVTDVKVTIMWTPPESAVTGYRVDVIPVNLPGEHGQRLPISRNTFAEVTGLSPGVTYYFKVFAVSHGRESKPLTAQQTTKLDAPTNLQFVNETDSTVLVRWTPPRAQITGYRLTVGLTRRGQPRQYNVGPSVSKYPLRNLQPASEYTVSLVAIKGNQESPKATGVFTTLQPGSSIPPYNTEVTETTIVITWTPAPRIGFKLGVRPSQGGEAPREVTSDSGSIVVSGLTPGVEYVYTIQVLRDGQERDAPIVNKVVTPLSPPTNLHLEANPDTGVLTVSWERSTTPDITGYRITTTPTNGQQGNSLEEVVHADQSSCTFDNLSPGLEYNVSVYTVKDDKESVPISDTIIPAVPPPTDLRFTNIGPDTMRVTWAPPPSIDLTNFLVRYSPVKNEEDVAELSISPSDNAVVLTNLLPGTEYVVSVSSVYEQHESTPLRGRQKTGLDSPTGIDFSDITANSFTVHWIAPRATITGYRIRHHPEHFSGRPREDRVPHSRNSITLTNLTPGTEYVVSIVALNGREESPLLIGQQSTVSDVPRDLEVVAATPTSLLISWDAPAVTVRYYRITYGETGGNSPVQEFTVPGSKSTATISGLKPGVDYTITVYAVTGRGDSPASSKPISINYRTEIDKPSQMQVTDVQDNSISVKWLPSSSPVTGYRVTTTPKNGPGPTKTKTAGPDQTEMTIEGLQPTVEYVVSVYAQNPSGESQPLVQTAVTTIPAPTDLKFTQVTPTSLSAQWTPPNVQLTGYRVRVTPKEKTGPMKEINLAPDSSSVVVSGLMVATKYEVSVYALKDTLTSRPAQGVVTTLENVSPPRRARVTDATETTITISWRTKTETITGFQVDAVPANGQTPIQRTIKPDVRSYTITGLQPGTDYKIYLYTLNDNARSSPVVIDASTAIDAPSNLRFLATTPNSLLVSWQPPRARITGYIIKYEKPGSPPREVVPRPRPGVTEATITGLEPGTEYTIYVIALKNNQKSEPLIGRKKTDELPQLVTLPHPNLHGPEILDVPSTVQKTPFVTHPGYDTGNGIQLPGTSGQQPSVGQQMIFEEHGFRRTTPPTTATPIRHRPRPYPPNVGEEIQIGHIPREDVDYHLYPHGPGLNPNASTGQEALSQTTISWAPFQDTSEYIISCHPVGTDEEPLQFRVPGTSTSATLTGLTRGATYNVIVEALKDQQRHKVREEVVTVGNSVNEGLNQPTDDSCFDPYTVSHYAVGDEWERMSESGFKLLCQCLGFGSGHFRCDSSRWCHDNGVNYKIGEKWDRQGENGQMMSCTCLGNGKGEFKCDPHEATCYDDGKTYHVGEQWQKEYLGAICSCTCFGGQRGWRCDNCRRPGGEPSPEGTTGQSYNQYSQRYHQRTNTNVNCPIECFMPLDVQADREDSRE

For “CSGal-1, cysteine-less mutant of human galectin-1, tag-free recombinant protein (from UniProt P09382 1-135) (natural protein)”, the pKd in assay [1] is 4.91; in assay [2] it was 6.07.

The pKd is −log10 of the Kd, conventionally taken in molar units.
